# Laboratory results taken from patent US5591427A, “Human Interleukin-3(Il-3) variants and their use to promote or antagonize IL-3-mediated processes” (Medvet Science Pty. Ltd., priority 1979, dated 1997).
# Substitutions are numbered along the chain they refer to.
# T1: IL-3 receptor (Homo sapiens, UniProt P26951+P32927)
# T1 sequence (P26951 19-378): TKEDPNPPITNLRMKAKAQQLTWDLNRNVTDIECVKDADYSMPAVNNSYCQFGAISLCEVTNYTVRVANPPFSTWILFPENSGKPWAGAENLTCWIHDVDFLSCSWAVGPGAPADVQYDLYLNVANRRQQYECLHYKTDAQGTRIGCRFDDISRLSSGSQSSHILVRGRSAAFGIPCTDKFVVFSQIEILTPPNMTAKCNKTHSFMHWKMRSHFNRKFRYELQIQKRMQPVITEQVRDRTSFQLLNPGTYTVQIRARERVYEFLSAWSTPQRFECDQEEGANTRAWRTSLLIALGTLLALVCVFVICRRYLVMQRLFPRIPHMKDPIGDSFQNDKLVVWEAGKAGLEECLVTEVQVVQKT
# T1 sequence (P32927 17-897): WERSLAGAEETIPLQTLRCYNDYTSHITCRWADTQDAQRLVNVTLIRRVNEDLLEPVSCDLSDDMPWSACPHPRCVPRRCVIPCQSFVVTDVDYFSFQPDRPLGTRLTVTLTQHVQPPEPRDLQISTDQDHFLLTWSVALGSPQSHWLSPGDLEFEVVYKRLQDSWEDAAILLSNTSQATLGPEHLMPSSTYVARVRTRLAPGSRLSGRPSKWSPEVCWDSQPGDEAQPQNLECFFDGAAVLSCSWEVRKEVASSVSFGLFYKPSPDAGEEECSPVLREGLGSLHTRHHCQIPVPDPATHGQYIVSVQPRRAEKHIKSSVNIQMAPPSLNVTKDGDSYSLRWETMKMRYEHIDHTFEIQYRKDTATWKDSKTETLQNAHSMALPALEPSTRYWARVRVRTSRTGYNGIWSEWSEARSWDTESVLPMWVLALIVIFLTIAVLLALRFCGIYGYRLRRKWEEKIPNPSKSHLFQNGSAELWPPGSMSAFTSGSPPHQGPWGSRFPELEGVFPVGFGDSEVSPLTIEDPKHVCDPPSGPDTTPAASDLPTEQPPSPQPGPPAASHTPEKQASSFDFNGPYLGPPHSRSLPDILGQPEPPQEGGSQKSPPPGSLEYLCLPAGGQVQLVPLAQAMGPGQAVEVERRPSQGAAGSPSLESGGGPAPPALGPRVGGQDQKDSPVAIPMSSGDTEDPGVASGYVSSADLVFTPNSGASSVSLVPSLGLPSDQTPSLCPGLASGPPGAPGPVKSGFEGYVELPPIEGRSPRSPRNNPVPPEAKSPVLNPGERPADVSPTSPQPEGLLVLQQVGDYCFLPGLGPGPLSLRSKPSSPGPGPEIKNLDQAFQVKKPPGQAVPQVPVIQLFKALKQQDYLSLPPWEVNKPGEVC
# T2: IL-3 high affinity receptor of monocytes (Homo sapiens, UniProt P26951+P32927)
# T2 construct: endogenous in cells; host or cells: freshly purified human peripheral blood monocytes
# T2 sequence (P26951 19-378): T1 sequence (P26951 19-378)
# T2 sequence (P32927 17-897): T1 sequence (P32927 17-897)
# T3: IL-3R α chain and β chain (Homo sapiens, UniProt P26951+P32927)
# T3 construct: amplify the complete coding region of the IL-3R alpha chain; also to amplify the coding region of the IL-3R α chain; expressed in transfected cells; host or cells: COS cells (pCDM8 vector, electroporation)
# T3 sequence (P26951 19-378): T1 sequence (P26951 19-378)
# T3 sequence (P32927 17-897): T1 sequence (P32927 17-897)
# B1: Gly 33: literature hIL-3 variant in which Pro 33 was substituted with Gly (Lokker et al, 1991a) (protein, UniProt P08700 20-152, looked up, variant P33G)
# Interleukin-3: APMTQTTPLKTSWVNCSNMIDEIITHLKQPPLGLLDFNNLNGEDQDILMENNLRRPNLEAFNRAVKSLQNASAIESILKNLLPCLPLATAAPTRHPIHIKDGDWNEFRRKLTFYLKTLENAQAQQTTLSLAIF
# B2: M6: human IL-3 mutant, amino acid 101 (Asp) replaced by Ala (protein, UniProt P08700 20-152, looked up, variant D101A)
# Interleukin-3: B1 Interleukin-3 with G33P, D101A
# B3: M9: human IL-3 mutant, amino acid 116 (Lys) replaced by Val (protein, UniProt P08700 20-152, looked up, variant K116V)
# Interleukin-3: B1 Interleukin-3 with G33P, K116V
# B4: M25: human IL-3 mutant with substitution of residues 21, 22 and 25 (protein, UniProt P08700 20-152, looked up, variant D21A E22L T25A)
# Interleukin-3: B1 Interleukin-3 with D21A, E22L, T25A, G33P
# B5: M47: human IL-3 mutant, glutamic acid at position 22 replaced by arginine (protein, UniProt P08700 20-152, looked up, variant E22R)
# Interleukin-3: B1 Interleukin-3 with E22R, G33P
# Experiments:
# M-07 cell line = conditions: E. coli expressed variants, literature; cited from earlier work
# IL-3 receptor = biological target: T1, IL-3 receptor; conditions: E. coli expressed variants, literature; cited from earlier work
# monocytes = test: Stimulation of human monocyte adherence (51Cr adhesion assay); format: cell-based; conditions: for stimulation of monocyte adherence: FIG. 3; for Relative biological activity, MONOCYTE: concentration of IL-3 mutant giving 50% of biological activity compared to that of wild type IL-3
# Procedure: (a) Monocyte purification. Monocytes were purified from the peripheral blood of normal donors, obtained from the Adelaide Red Cross Transfusion Service, as previously described (Elliott et. al., 1990, J. Immunol., 145, 167-171). In brief, mononuclear cells were prepared by centrifugation of whole blood on lymphoprep cushions (Nyegaard, Oslo, Norway) and washed twice in HBSS, 0.02% EDTA, 0.1% heat inactivated FCS (Flow Laboratories, North Ryde, Australia) and monocytes were purified in a Beckman J-6M/E elutriator using the Sanderson chamber, a flow rate of 12 ml/min and a constant rotor speed of 2050 rpm. Cells remaining in the chamber after 30 min were collected, washed twice in HBSS, and used immediately. Using these methods, monocyte purity as assessed by morphology and nonspecific-esterase staining was always >90% and usually >95%. The major contaminating cell types were lymphocytes and granulocytes (principally basophils).
# (b) Adhesion assay. Adhesion was measured by an isotopic method essentially as described (Elliott et. al., supra). In brief, purified monocytes (0.5 to 1×10^8) were resuspended in 1 ml RPMI 1640 with 0.1% FCS and antibiotics and incubated for 30 min at 37° C. with 500 μCi^51 Cr in the form of sodium chromate (Amersham International., Buckinghamshire, England). Cells were washed thrice in RPMI 1640 and resuspended in culture medium consisting of RPMI 1640, 10% FCS, antibiotics, and 0.2% sodium bicarbonate. For measurement of adhesion, 1 to 2.5×10^5 monocytes were aliquotted per well in 96-well microtitre plates (Nunc, Karnstrup, Denmark) together with stimuli or control medium to a total volume of […], and incubated for the indicated periods. […] At harvest, samples of supernatant were taken to assess spontaneous ^51 Cr release (usually <10% of cell-associated radioactivity), wells were washed three times with RPMI 1640 at 37° C., and residual adherent cells lysed in 10 mM Tris-hydrochloride, and 1% Nonident p40 detergent (Sigma). Lysates were transferred to tubes and counted in a Packard auto-gamma 5650. Percent adherence was calculated according to the formula: [formula]
# [1] = system: chronic myeloid leukaemic (CML) cells; test: Proliferation of chronic myeloid leukaemic (CML) cells, [3H] thymidine incorporation; format: cell-based, human; conditions: for stimulation of CML cell proliferation: FIG. 2, FIG. 8; for Relative biological activity, PROLIFERATION CML: concentration of IL-3 mutant giving 50% of biological activity compared to that of wild type IL-3
# Procedure: (b ) Proliferation of chronic myeloid leukaemic (CML) cells: Primarily CML cells from one patient were selected for their ability to incorporate [^3 H] thymidine in response to IL-3 as described (Lopez el. al., supra ). Briefly, CML cells were placed at 2×10^5 cells/mL fresh medium containing different concentrations of IL-3. Cells were incubated for 24 hours in a flat bottom 96-well NUNCLON plates (2×10^4 cells/well) before being pulsed with [^3 H] thymidine (0.5 μCi/well) for four more hours at 37° C. The cells were then harvested onto glass filters with a Titertek automated cell harvester and counted into a Beckman liquid scintillation counter. Data are expressed in cpm, and each point is the mean of six replicates.
# [2] = system: bone marrow progenitor cells; test: Colony assay: clonal proliferation and differentiation of bone marrow progenitor cells in semi-solid agar; format: cell-based; conditions: for Relative biological activity, PROLIFERATION COLONIES: concentration of IL-3 mutant giving 50% of biological activity compared to that of wild type IL-3, mean ± SD
# Procedure: (a) Colony assay: this assay measured the clonal proliferation and differentiation of bone marrow progenitor cells in semi-solid agar and was carried out as described (Lopez et. al., 1985, Blood 72, 1797-1804). Briefly, low density, macrophage-depleted bone marrow cells were cultured at a concentration of 0.5 to 1×10^5 /mL in Iscove's modified Dulbecco's medium (IMDM, GIBCI, Grant Island, N.Y.), containing 0.33% agar (Difco, Detroit), 25% FCS (Commonwealth Serum Laboratories, Parkville, Victoria, Australia), and 20 μmol/LK2-mercaptoethanol. Different dilutions of IL-3- containing COS cell supernatants were added to each plate. Plates were prepared in triplicate and scored after incubation at 37° C. in 5% CO2 in a humid atmosphere for 14 days. Clones containing 40 cells were scored as colonies.
# basophils = test: Histamine release assay with basophils; format: cell-based, human; conditions: FIG. 4
# Procedure: This was carried out as previously described (Lopez et. al., 1990, J. Cell. Physiol., 145, 69-77). Briefly, basophils were obtained from the peripheral blood of normal individuals after dextran sedimentation and centrifugation over Lymphoprep. The percentage of basophils in these preparations varied between 0.2% and 10%. In 300 μl 2×10^4 cells were incubated with 2 μg/ml of purified human IgE. IgE-sensitisedcells were mixed with a goat IgG antihuman IgE (Cappel 0101-0061) and rhIL-3, in a final volume of 500 μl. After incubation for 60 min at 37° C., the cells were centrifuged and 350 μl aliquots removed and stored at -20° C. before assaying for histamine content. Histamine was assayed using a radioertzymatic method essentially as described (Shaff and Beavan, 1979, Anal. Biochem., 94, 425-430). Briefly, samples of 30 μl were diluted with an equal volume of water and mixed with a 30 μl solution comprising 27.5 μl 0.1 M sodium phosphate, pH 7.9, 1.5 μl rat kidney histamine-N-methyltransferase, and 1.0 μl (0.5 μCi)^3 H-methyl-S-adensoyl-L-methionine (Dupont Net 155, low SA). Tritium-labelled methyl-histamine was extracted into chloroform/ether, dried, and counted by scintillation spectrophotometry. […] as nanograms of histamine per milliliter by extrapolation to a standard curve constructed with 10, 5 and 1 ng/ml of histamine (SIGMA).
# [3] = biological target: T2, IL-3 high affinity receptor of monocytes; test: Competition for 125I-IL-3 binding to the high affinity receptor of monocytes; conditions: FIG. 5, at the concentrations tested
# Procedure: (a) Radioiodination of hIL-3: rh IL-3 (gift from Dr. L. Park, Immunex Corporation, Seattle, Wash.) was radioiodinated by the ICI method as previously described (Contreras et. al., supra). Iodinated protein was separated from free ^125 I by chromatography on a Sephadex G-25 PD 10 column (Pharmacia, Uppsala, Sweden) equilibrated in phosphate-buffered saline (PBS) containing 0.02% Tween 20, and stored at 4° C. for up to 4 weeks. Before use, the iodinated protein was purified from Tween and nonprotein-associated radioactivity by cation exchange chromatography on a 0.3-ml CM-Sepharose CL-6B column (Pharmacia) and stored at 4° C. for up to 5 days.
# (b) Competition Binding assay. Freshly purified monocytes were suspended in binding medium consisting of RPMI 1640 supplemented with 20 mmol/L/HEPES and 0.5% bovine serum albumin (BSA). […] Cell suspensions were then overlaid on 0.2 mL FCS at 4° C. and centrifuged for 30 seconds at a maximum speed in a Beckman Microfugre 12. The tip of each tube was cut off above the visible cell pellet and counted in a Packard Auto-Gamma 5650 (Downer's Grove, Ill). The results are expressed as Percent competition where 100% is the competition observed in the presence of 100 fold excess native IL-3.
# [4] = biological target: T3, IL-3R α chain and β chain; test: Competition for 125I-IL-3 binding to reconstituted IL-3 high affinity receptor (α and β chains) in COS cells; conditions: FIG. 7
# Description: PolyA+ RNA was isolated from the human cord blood cell line KMT2. Oligo dT primed double stranded cDNA was synthesised and used as template for PCR amplification. The PCR primers were designed to amplify the complete coding region of the IL-3R alpha chain and also to amplify the coding region of the […]. The PCR products were cloned into the vector pGEM-2 for sequence verification, and then into the eukaryotic expression vector, pCDM8. The […]-containing plasmid was transfected into COS cells by electroporation, either on its own or in conjunction with the […], and after two days the cells were used for binding studies.
Molecule,stimulation of monocyte adherence (monocytes),"Relative biological activity, MONOCYTE (monocytes)",stimulation of CML cell proliferation [1],"Relative biological activity, PROLIFERATION CML [1]","Relative biological activity, PROLIFERATION COLONIES [2]",further results
B1,–,–,–,–,–,"proliferation activity, M-07 cells (M-07 cell line): enhanced proliferation activity; receptor binding capacity (IL-3 receptor): without a significant modification"
B2,more potent than the wild type IL-3,153 ± 48,more potent than the wild type IL-3,205,104 ± 35,–
B3,more potent than the wild type IL-3,312,more potent than the wild type IL-3,328,420,histamine release from basophils (basophils): increased histamine release; number of day 14 colonies [2]: increase in the number of day 14 colonies
B4,lack of stimulation,–,lack of stimulation,–,–,binding to high affinity IL-3 receptors of monocytes [3]: negative at binding
B5,–,–,–,–,–,binding to cotransfected α and β chains [4]: less binding
